Laboratory results from US20130017188A1, “MODULATION OF SGK1 EXPRESSION IN TH17 CELLS TO MODULATE TH17-MEDIATED IMMUNE RESPONSES” (THE BRIGHAM AND WOMEN'S HOSPITAL, INC., priority 2009, published 2013).

Assays:
[1] = tested on: SGK1 expression in naïve CD4+ T cells; assay: SGK1 mRNA expression during T cell / TH17 differentiation; type: cell-based
Protocol: Naïve CD4+ T cells were cultured in TH17 differentiating condition (TGF-β plus IL-6) for 96 hours.
The correlation between the SGK1 expression level during T cell differentiation was previously unknown, so SGK1 mRNA level was first measured under different conditions during T cell differentiation (FIG. 1). […] IL-23, an IL-12 family cytokine, is essential for enhancing generation of TH17 cells.
The time dependent expression of SGK1 during TH17 differentiation was further examined by culturing naïve CD4+ T cells under TH17 differentiating conditions (TGF-β plus IL-6) for 96 hours. After 48 hours, TH17 cells were supplemented with IL-23 until the end of the culture period.

TH17 cells = assay: IL-23 dependent expansion of differentiated TH17 cells, intracellular cytokine staining for IL-17; type: cell-based, mice
Protocol: Naïve CD4+ T cells were sorted from wild-type and SGK1-deficient mice and cultured under TH17 differentiation conditions. After a first round of stimulation, the cells were rested for two days in cytokine free medium. Two days later, cells were activated in the presence or absence of IL-23, and intracellular cytokine staining was performed for IL-17.
(§1) It has been shown that exposure of IL-23 is essential for expanding and stabilizing TH17 cells. […] It was next tested whether SGK1 is essential for IL-23-dependent expansion of TH17 cells. Naïve CD4+ T cells were sorted from wild-type and SGK1-deficient mice and were cultured under TH17 differentiation conditions, as described herein. After a first round of stimulation, cells were rested for two days in a cytokine-free medium. Two days later, cells were activated in the presence or absence of IL-23, and intracellular cytokine staining was performed for IL-17 expression. […] It was further tested whether IL-23 can expand sorted memory TH17 cells. Both wild-type and SGK1-deficient CD4^+CD62L^− cells were sorted and cultured with either anti-CD3 alone or anti-CD3 plus IL-23.

[2] = tested on: CD4+CD62L- cells (memory CD4 cells); assay: IL-17A and IL-17F expression in sorted memory CD4+CD62L- cells; type: cell-based, mice; conditions: anti-CD3 plus IL-23 vs anti-CD3 alone (FIG. 5)
Protocol: Wild-type and SGK1-deficient CD4+CD62L-cells (memory CD4 cells) were sorted and cultured with either anti-CD3 alone or anti-CD3 plus IL-23.
as §1

IL-6: STAT3-activating cytokine used with TGF-β for TH17 differentiation
expression of SGK1 (mRNA) ([1]; IL-6 added together with TGF-β (FIG. 1)): further increased the expression SGK1

TGF-β
expression level of SGK1 (mRNA) ([1]; T cell differentiation, TGF-β (FIG. 1)): upregulate the expression level of SGK1

B1: IL-23: an IL-12 family cytokine, essential for enhancing generation of TH17 cells (protein, UniProt Q9NPF7 20-189; P29460 23-328, looked up)
Interleukin-23 subunit alpha: RAVPGGSSPAWTQCQQLSQKLCTLAWSAHPLVGHMDLREEGDEETTNDVPHIQCGDGCDPQGLRDNSQFCLQRIHQGLIFYEKLLGSDIFTGEPSLLPDSPVGQLHASLLGLSQLLQPEGHHWETQQIPSLSPSQPWQRLLLRFKILRSLQAFVAVAARVFAHGAATLSP
Interleukin-12 subunit beta: IWELKKDVYVVELDWYPDAPGEMVVLTCDTPEEDGITWTLDQSSEVLGSGKTLTIQVKEFGDAGQYTCHKGGEVLSHSLLLLHKKEDGIWSTDILKDQKEPKNKTFLRCEAKNYSGRFTCWWLTTISTDLTFSVKSSRGSSDPQGVTCGAATLSAERVRGDNKEYEYSVECQEDSACPAAEESLPIEVMVDAVHKLKYENYTSSFFIRDIIKPDPPKNLQLKPLKNSRQVEVSWEYPDTWSTPHSYFSLTFCVQVQGKSKREKKDRVFTDKTSATVICRKNASISVRAQDRYYSSSWSEWASVPCS
IL-17 expressing TH17 cells after re-activation with IL-23 (TH17 cells; SGK1-deficient TH17 cells, ~4% in absence of IL-23): ~1% | IL-17 expressing TH17 cells after re-activation with IL-23 (TH17 cells; wild-type TH17 cells, 11.5% in absence of IL-23): 13% | expression of SGK1 (mRNA) ([1]; IL-23, further to TGF-β and IL-6 (FIG. 1)): further enhances the expression of SGK1 | time dependent expression of SGK1 ([1]; TH17 cells supplemented with IL-23 after 48 hours (FIG. 2)): further induced SGK1 expression | expression of IL-17A and IL-17F ([2]; SGK1-deficient memory cells): defective in inducing expression of IL-17A and IL-17F | expression of IL-17A and IL-17F ([2]; wild-type memory cells): clearly enhanced the expression of IL-17A and IL-17F
